Drawing on patent US20030103985A1, this text covers Kd for one molecule.

In this assay the target is CD44v6 on antigen-positive FaDu cells (human head and neck cancer cell line) (human) (UniProt P16070). In words: flow cytometry (FACS) on FaDu cells, FITC-labeled anti-human IgG detection, on ice. Background: Flow cytometry measures light scatter and fluorescence of single cells or particles in a stream.

B1: BIWA 4 (antibody, human IgG1, kappa, V domains shown)
VH: EVQLVESGGGLVKPGGSLRLSCAASGFTFSSYDMSWVRQAPGKGLEWVSTISSGGSYTYYLDSIKGRFTISRDNAKNSLYLQMNSLRAEDTAVYYCARQGLDYWGRGTLVTVSS
VL: EIVLTQSPATLSLSPGERATLSCSASSSINYIYWYQQKPGQAPRLLIYLTSNLASGVPARFSGSGSGTDFTLTISSLEPEDFAVYYCLQWSSNPLTFGGGTKVEIKR
As usually defined, the Kd is a measure of binding affinity in units of concentration. The low end stands for higher affinity, the high end for lower affinity. The molecule B1 showed a Kd of 1 nM.
